Experimental data from PMC10360443 (Science immunology, 2023).

Molecular target: HHLA2 (recombinant, SPR analyte) (human, UniProt Q9UM44 23-414)
Experiment: SPR

Kd: 48.9 µM
B1: KIR3DL3 (recombinant, coupled to the streptavidin sensor chip) (receptor)
chain: QDKPFLSAWPGTVVSEGQHVTLQCRSRLGFNEFSLSKEDGMPVPELYNRIFRNSFLMGPVTPAHAGTYRCCSSHPHSPTGWSAPSNPVVIMVTGVHRKPSLLAHPGPLVKSGETVILQCWSDVRFERFLLHREGITEDPLRLVGQLHDAGSQVNYSMGPMTPALAGTYRCFGSVTHLPYELSAPSDPLDIVVVGLYGKPSLSAQPGPTVQAGENVTLSCSSRSLFDIYHLSREAEAGELRLTAVLRVNGTFQANFPLGPVTHGGNYRCFGSFRALPHAWSDPSDPLPVSVTGNSRHL
